30 sequences from the supplement of paper PMC9170038 can be followed below.

In the data set the test system is MS2 coat protein. Put plainly: apparent KD of MS2 coat protein; designed switch direction (-1 OFF switch, 1 ON switch): -1; higher = weaker reporter binding. The essentials: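 Designed RNA switches with common flanks were transcribed on Illumina chips by stalled E. coli RNA polymerase and titrated with SNAP-549-labelled MS2 coat protein, from 0.7 or 1.5 nM doubling to 3 µM, in Tris-HCl pH 7.5 buffer with KCl, MgCl2, BSA, DTT, tRNA and Tween-20. Steps lasted 0.8–1.5 h (lowest) to 10–20 min (highest). Titrations ran without input, with 200 uM small-molecule ligand, or with an oligonucleotide input. Normalised cluster fluorescence was curve-fitted, and apparent KD is the per-design median over clusters.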

Where [1] appears, read: input ligand: microRNA oligo, concentration not stated.
Where [2] appears, read: Eterna round: R95, input ligand: FMN 200 uM.
[3] abbreviates: Eterna round: R95, input ligand: microRNA oligo, concentration not stated.
Setting [4] is: Eterna round: R95, input ligand: none.

For the sequence “CGAUCACAUGAGGAUCACCCAUGUGAGGAUAUAAUAACGCGGCGUGAGCACGGGAAUUUUAGAAGGCACACGGU [Eternabot (Original) Solution 42] (Eterna round: R97, puzzle: Exclusion 1)”, the “apparent KD of MS2 coat protein” value is 14.2 nM (input ligand: FMN 200 uM) and 13 nM (input ligand: none).

For “AAACGGCAGGGAGGAUAUGCUUACCUGGGUCGUCUUCAAACAUGAGGAUCACCCAUGUAGUCGACGCAGAAGGCCCUCAAAGCC [JL ViennaUCT Ontiis mod] (Eterna round: R96, puzzle: Exclusion NG 2)”, the “apparent KD of MS2 coat protein” value is, setting by setting: (input ligand: FMN 200 uM) 144 nM; under setting [1], 18 nM; (input ligand: none) 18.6 nM.

With “GAUGUGAGACAGGAUAUCCACGGGAUAGUCUGAGGAGAAGGGUCUACAUGAGGAUCACCCAUGUGCGUCCCUCA [EX6 B.8] (Eterna round: R97, puzzle: Exclusion 6)”, the “apparent KD of MS2 coat protein” value runs as follows: (input ligand: FMN 200 uM) 22.4 nM; (input ligand: none) 15.5 nM.

“CUCAUUCGAGGAUAUGCAGAAUGGGUCCAAUCAUAAGACAUACAUGAGGAUCACCCAUGUAGAAGGCGGCCAUC [Eternabot (L1) Solution 59] (Eterna round: R97, puzzle: Exclusion 2)”: the “apparent KD of MS2 coat protein” value reads like this: (input ligand: FMN 200 uM) 26 nM; (input ligand: none) 25.6 nM.

On to “UGUUGUUACGUAGGAUAUCCACCAACAGGUGGAAGGAUAUGGAAACAGAAGGUUCGCCAACAGGCGGAGAAGGACGGGUUAACA [pwkr exNG2 2xF7 2xFMN.22] (Eterna round: R96, puzzle: Exclusion NG 2)”, for which the “apparent KD of MS2 coat protein” value was found to be 42.5 nM (input ligand: FMN 200 uM), 11.5 nM under setting [1] and 32.3 nM (input ligand: none).

As for “UGCCGGCAUGUAAGGAUAUCCAGGAGAUGUAGAUCGGAGAAGGUACAUGAGGAUCACCCAUGUAUUCCAAUAAA [BmEX4 C.19] (Eterna round: R97, puzzle: Brourd's mod of Exclusion 4)”, the “apparent KD of MS2 coat protein” value by setting is: (input ligand: FMN 200 uM) 18 nM; (input ligand: none) 18.5 nM.

For the sequence “AAGCCCUGAGGAUAUCCCAACUCGCACAUGAGGAUCACCCAUGUCCUCCUCCGGGCUUCGGGAGAAGGCAGGUCUC [Megrez-7.8] (Eterna round: R97, puzzle: Exclusion 5)”, the “apparent KD of MS2 coat protein” value (input ligand: FMN 200 uM) came to 186 nM and the “apparent KD of MS2 coat protein” value (input ligand: none) came to 25.7 nM.

With “CUUGCGGACAAAGGAUAUUGCGGUGACCGGCUCGGCGUACCGAGCCUACAUGAGGAUCACCCAUGUAAGAAGGUUGACGCUGGU [JL ViennaUCT Qudice mod 4] (Eterna round: R96, puzzle: Exclusion NG 2)”, the “apparent KD of MS2 coat protein” value (input ligand: FMN 200 uM) amounted to 106 nM, the “apparent KD of MS2 coat protein” value under setting [1] was 20 nM and the “apparent KD of MS2 coat protein” value (input ligand: none) is 27.6 nM.

For the sequence “ACAUGUUGCGCAGGAUAUGAGACACAUGAGGAUCACCCAUGUGGUUACAUGUCUUACCAAGCGUCUCAGAAGGGUGUGAACAUG [Ex NG2 #33] (Eterna round: R96, puzzle: Exclusion NG 2)”, the “apparent KD of MS2 coat protein” value was 36.4 nM (input ligand: FMN 200 uM), 20.3 nM under setting [1] and 24.7 nM (input ligand: none).

“AGUACUAACACGGUUGUGUUAGUACAAUAAGCUUGUGAAACAUGAGGAUCACCCAUGUCCUCAUAAGCUCGUCUUAU [salish99_TOv2_r3_070] (puzzle: Sensor v3, turn-off variant 2)”: the “apparent KD of MS2 coat protein” value was determined as 16.1 nM under setting [2], 954 nM under setting [3] and 15.1 nM under setting [4].

For the sequence “CAUUACUGCAAGCUUUGGGACAUGAGGAUCACCCAUGUUCGUCUUAUUGAUCUAGGUACGCUGACGUACCUAGAUCU [JL-sv1-2.27 Brourd mod] (puzzle: Sensor v3, turn-off variant 1)”, the “apparent KD of MS2 coat protein” value reads like this: under setting [2], 17 nM; under setting [3], 28.9 nM; under setting [4], 15.4 nM.

Consider “UUUGUACAUGAGGAUCACCCAUGUCAGGAUAUGUCAUCGCCGUUUCCCAGCCGGCGUCACAGAAGGGACAUGCA [EX1 C.5] (Eterna round: R97, puzzle: Exclusion 1)”, for which the “apparent KD of MS2 coat protein” value runs as follows: (input ligand: FMN 200 uM) 56.6 nM; (input ligand: none) 26.2 nM.

Turning to “CAUGUGCGAAAGGAUAUGGCCCGCGGAUCAGCUCCAGAAGGUUCGACAUGAGGAUCACCCAUGUGAUCUGGUAA [Eternabot (L1) Solution 61] (Eterna round: R97, puzzle: Exclusion 6)”, the “apparent KD of MS2 coat protein” value was 139 nM (input ligand: FMN 200 uM) and 369 nM (input ligand: none).

“GCCUCACUUGAGGAUCACCCAAGUCAGGAUAUUCACGGAACUACGUAGUAGUUCGGCCGGAGAAGGGAUUCGGG [Qubexe] (Eterna round: R97, puzzle: Exclusion 1)”: the “apparent KD of MS2 coat protein” value by setting is: (input ligand: FMN 200 uM) 64.8 nM; (input ligand: none) 41.8 nM.

For the sequence “UCCUCACAUGAGGAUCACCCAUGUGAGGAUAUGGGCCCGGGCCCGAAAGGGCCCGGGCCCAGAAGGCACUGGGU [MoB_2] (Eterna round: R97, puzzle: Exclusion 1)”, the “apparent KD of MS2 coat protein” value came to 25 nM (input ligand: FMN 200 uM) and 56.1 nM (input ligand: none).

Regarding “ACUUACUGAGGAUAUACAUAGAUUUACAUGAGGAUCACCCAUGUUCCUCUUUGUAUAAAUGUAGAAGGCAGAAGAU [Mat - Exclusion 5 - JL Mod - D59] (Eterna round: R97, puzzle: Exclusion 5)”, the “apparent KD of MS2 coat protein” value turned out to be 183 nM (input ligand: FMN 200 uM) and 96.5 nM (input ligand: none).

Take “UUAGUGUUAGGAUAUAAUCAUAUAAGCUGUAAGGUGUAUGAUUAGAAGGGACAUGAGGAUCACCCAUGUCGUGA [Eternabot (L1) Solution 94] (Eterna round: R97, puzzle: Exclusion 4)”: the “apparent KD of MS2 coat protein” value (input ligand: FMN 200 uM) stood at 23.1 nM and the “apparent KD of MS2 coat protein” value (input ligand: none) was 20.1 nM.

Consider “GGUUGGCGAGGAUAUACAUGAGGAUCACCCAUGUGAGAGAAACAAGUGAGGAAGAAAAGUAGAAGGCGCUGACG [salish99_ex3_r3_023] (puzzle: Exclusion 3)”, for which the “apparent KD of MS2 coat protein” value is, setting by setting: under setting [2], 112 nM; under setting [3], 88.1 nM; under setting [4], 37.1 nM.

With “AAUGAUUGACGAGGAUAUUGUGUUAGAUCACGACGAGAAGGCGUCUGUCACAUGAGGAUCACCCAUGUGAGCCUGGUGGAUGGG [Ex NG1 #79] (Eterna round: R96, puzzle: Exclusion NG 1)”, the “apparent KD of MS2 coat protein” value by setting is: (input ligand: FMN 200 uM) 41.7 nM; under setting [1], 22.3 nM; (input ligand: none) 26.7 nM.

For the sequence “AGUAACCGUCACGAAAGUGAUGGUUACACAAGCAAAUGUACAUGAGGAUCACCCAUGUCCUCAUUUGCUCGUCUUGU [Sensor 3 - 48] (puzzle: Sensor v3, turn-off variant 2)”, the “apparent KD of MS2 coat protein” value was found to be 101 nM under setting [2], 398 nM under setting [3] and 121 nM under setting [4].

Regarding “GCAAGCUUAAUCAGUAUGAACAUGAGGAUCACCCAUGUAUAAGGUAAUACUUUUGGGCCCUUUAUUACUCGUCUUAU [JR_STOV1_Sub029] (Eterna round: R97, puzzle: Sensor, turn-off variant 1)”, the “apparent KD of MS2 coat protein” value runs as follows: (input ligand: FMN 200 uM) 67.4 nM; (input ligand: none) 72.6 nM.

In the case of “AAAAUGUAAGGAUAUAGCCGGAACAAAGGGUCAAUAACCGGCUAGAAGGUACAUGAGGAUCACCCAUGUAAGAA [Excls4-V] (puzzle: Exclusion 4)”, the “apparent KD of MS2 coat protein” value under setting [2] was found to be 19.4 nM, the “apparent KD of MS2 coat protein” value under setting [3] is 13.3 nM and the “apparent KD of MS2 coat protein” value under setting [4] amounted to 15.8 nM.

Turning to “CUACUCGUUGUGAGGAUAUCGUUUUCGUCACGGAUCGAGAAGGCACAUGAGGAUCACCCAUGUUUGAUGUGGAU [JR_BMOE4_Sub091] (Eterna round: R96, puzzle: Brourd's mod of Exclusion 4)”, the “apparent KD of MS2 coat protein” value by setting is: (input ligand: FMN 200 uM) 89 nM; under setting [1], 29.9 nM; (input ligand: none) 38.1 nM.

On to “UGAAACCUAGGAUAUACAUGAGGAUCACCCAUGUAAUGUAGUAUAGUAUAUGUAAGAUGUAGAAGGAGGAAUGU [LRO-Excl05-27-Smart Aleck] (Eterna round: R97, puzzle: Exclusion 3)”, for which the “apparent KD of MS2 coat protein” value runs as follows: (input ligand: FMN 200 uM) 30.9 nM; (input ligand: none) 34.9 nM.

For “AGUUAUUCAGGAUAUGGUGUGUUAUACAUGAGGAUCACCCAUGUGGGUCAUGGUUAGGCCUCAGAAGGGAAUGUUA [salish99_ex5_r4_125] (Eterna round: R97, puzzle: Exclusion 5)”, the “apparent KD of MS2 coat protein” value was determined as 796 nM (input ligand: FMN 200 uM) and 1100 nM (input ligand: none).

As for “UUCUUACAUGAGGAUCACCCAUGUCAGGAUAUCUCCUCACUGCGCUUGCGCAGUGGAUAGAGAAGGGACAGGCU [JL ViennaUCT Aner mod 3] (puzzle: Exclusion 1)”, the “apparent KD of MS2 coat protein” value under setting [3] was 43.1 nM.

Consider “GUAACAUGCUGGUGAUCAUACAUGAGGAUCACCCAUGUAACAAGCUUUUUGUUCGUCUUAUAAGAUCACCAGCAUGU [Stov1/9-B2] (Eterna round: R97, puzzle: Sensor, turn-off variant 1)”, for which the “apparent KD of MS2 coat protein” value runs as follows: (input ligand: FMN 200 uM) 18.4 nM; (input ligand: none) 19.8 nM.

Take “AAGCAUGGAGGAUAUACAUGAGGAUCACCCAUGUCCAGGUCCACGGGUAUUUUGUUGCGUAGAAGGCCAUGUAG [Eternabot (L2) Solution 21] (Eterna round: R97, puzzle: Exclusion 3)”: the “apparent KD of MS2 coat protein” value by setting is: (input ligand: FMN 200 uM) 242 nM; (input ligand: none) 46.8 nM.

For “AGGGAUAAAGGAUAUACAUGAGGAUCACCCAUGUUGAGGAAAGUGAGAUGAGGAGGAAGUAGAAGGUUAGGCGA [JR_Exclu3_Sub085] (puzzle: Exclusion 3)”, the “apparent KD of MS2 coat protein” value reads like this: under setting [2], 37.2 nM; under setting [3], 37.7 nM; under setting [4], 47.4 nM.

Regarding “UGAUCACAUGAGGAUCACCCAUGUCAGGAUAUCUACAUUGAAGCUUCGGCUUCAAUGUAGAGAAGGGACAUAAU [E1/3-B1] (Eterna round: R97, puzzle: Exclusion 1)”, the “apparent KD of MS2 coat protein” value (input ligand: FMN 200 uM) was determined as 115 nM and the “apparent KD of MS2 coat protein” value (input ligand: none) amounted to 175 nM.
